For this data set, the system named is Escherichia coli TOP10. Kind of data set: shrunken log2 fold change of peptide-encoding DNA abundance (4.5 h post-induction vs induction); higher = less antimicrobial activity (less host growth inhibition). The note with it: time post-induction: 4.5 h; library: site-saturation at positions 5, 18, 19, 20.
Turning to RRIRYRPPRLPRPRPRPMVEPRP, the “shrunken log2 fold change” value was -0.201. RRIRTRPPRLPRPRPRPLTPPRP: the “shrunken log2 fold change” value is -0.0473. The value for RRIRNRPPRLPRPRPRPHVAPRP was -0.0498; that for RRIRARPPRLPRPRPRPLDVPRP was -0.07. As to RRIRWRPPRLPRPRPRPQNIPRP, the “shrunken log2 fold change” value was -0.882. With RRIRVRPPRLPRPRPRPPIPPRP, the “shrunken log2 fold change” value worked out at 0.242.

For the sequence RRIRKRPPRLPRPRPRPVNHPRP, the “shrunken log2 fold change” value is -0.0443.

Turning to RRIRDRPPRLPRPRPRPYNIPRP, the “shrunken log2 fold change” value is -0.529. Consider RRIRGRPPRLPRPRPRPSEGPRP, for which the “shrunken log2 fold change” value came to 0.356. For RRIRWRPPRLPRPRPRPPPDPRP the value was 0.906; for RRIRLRPPRLPRPRPRPLNLPRP, -0.381. As for RRIRNRPPRLPRPRPRPQARPRP, the “shrunken log2 fold change” value is -0.0332.

As for RRIRSRPPRLPRPRPRPGSMPRP, the “shrunken log2 fold change” value was -0.201. As to RRIRVRPPRLPRPRPRPAVQPRP, the “shrunken log2 fold change” value is -0.121. RRIRQRPPRLPRPRPRPGALPRP: the “shrunken log2 fold change” value turned out to be 0.0446.

Consider RRIRGRPPRLPRPRPRPWFQPRP, for which the “shrunken log2 fold change” value turned out to be 0.0619. Consider RRIRLRPPRLPRPRPRPNELPRP, for which the “shrunken log2 fold change” value turned out to be 0.0122. Take RRIRPRPPRLPRPRPRPHIRPRP: the “shrunken log2 fold change” value was -0.0938. As to RRIRGRPPRLPRPRPRPCKFPRP, the “shrunken log2 fold change” value came to 0.125.

As for RRIRTRPPRLPRPRPRPAFIPRP, the “shrunken log2 fold change” value was -0.512. Turning to RRIRARPPRLPRPRPRPFDTPRP, the “shrunken log2 fold change” value was -0.333. For the sequence RRIRSRPPRLPRPRPRPNWEPRP, the “shrunken log2 fold change” value came to 0.015. In the case of RRIRGRPPRLPRPRPRPADVPRP, the “shrunken log2 fold change” value was 0.508.

Take RRIRWRPPRLPRPRPRPFICPRP: the “shrunken log2 fold change” value was -0.309. For RRIRFRPPRLPRPRPRPIYNPRP the value was -0.624; for RRIRVRPPRLPRPRPRPCMKPRP, -0.104. For the sequence RRIRKRPPRLPRPRPRPCMLPRP, the “shrunken log2 fold change” value is -0.245. As to RRIRQRPPRLPRPRPRPSESPRP, the “shrunken log2 fold change” value is -0.0923.

In the case of RRIRARPPRLPRPRPRPQYYPRP, the “shrunken log2 fold change” value was -0.452. Consider RRIRKRPPRLPRPRPRPAWSPRP, for which the “shrunken log2 fold change” value turned out to be 0.202. With RRIRVRPPRLPRPRPRPEIVPRP, the “shrunken log2 fold change” value was -0.0567. For RRIRIRPPRLPRPRPRPCQFPRP the value was -0.395. For RRIRQRPPRLPRPRPRPPHMPRP, the “shrunken log2 fold change” value was 0.287. Regarding RRIRSRPPRLPRPRPRPMCPPRP, the “shrunken log2 fold change” value is -0.0743.

Turning to RRIRTRPPRLPRPRPRPQYGPRP, the “shrunken log2 fold change” value is -0.082. For RRIRLRPPRLPRPRPRPDVYPRP, the “shrunken log2 fold change” value was -0.0227.

Consider RRIRPRPPRLPRPRPRPVKCPRP, for which the “shrunken log2 fold change” value was -0.0701.

RRIRMRPPRLPRPRPRPSEFPRP: the “shrunken log2 fold change” value is -0.143.

As for RRIRMRPPRLPRPRPRPAVWPRP, the “shrunken log2 fold change” value was 1.08. With RRIRSRPPRLPRPRPRPMIYPRP, the “shrunken log2 fold change” value was -0.257. On to RRIRSRPPRLPRPRPRPDVWPRP, for which the “shrunken log2 fold change” value worked out at 0.49. Regarding RRIRFRPPRLPRPRPRPQSYPRP, the “shrunken log2 fold change” value is -0.111. In the case of RRIRCRPPRLPRPRPRPRKNPRP, the “shrunken log2 fold change” value was -0.00471. On to RRIRIRPPRLPRPRPRPPVKPRP, for which the “shrunken log2 fold change” value was -0.156. Turning to RRIRKRPPRLPRPRPRPKHYPRP, the “shrunken log2 fold change” value was -0.283. The value for RRIRGRPPRLPRPRPRPNFNPRP was 0.0556; that for RRIRTRPPRLPRPRPRPSSVPRP was -0.139; that for RRIRSRPPRLPRPRPRPYCFPRP was -0.544. RRIRLRPPRLPRPRPRPAHNPRP: the “shrunken log2 fold change” value is 0.255.

Turning to RRIRFRPPRLPRPRPRPRWDPRP, the “shrunken log2 fold change” value turned out to be 0.284. As to RRIRNRPPRLPRPRPRPKWSPRP, the “shrunken log2 fold change” value came out at 0.0717. For the sequence RRIRGRPPRLPRPRPRPYRYPRP, the “shrunken log2 fold change” value stood at 0.322. For RRIRTRPPRLPRPRPRPEDTPRP, the “shrunken log2 fold change” value is -0.045.

On to RRIRMRPPRLPRPRPRPEPPPRP, for which the “shrunken log2 fold change” value was found to be 1.76.

As to RRIRRRPPRLPRPRPRPLEHPRP, the “shrunken log2 fold change” value was 0.21. As to RRIRHRPPRLPRPRPRPEVRPRP, the “shrunken log2 fold change” value was -0.00149. In the case of RRIRSRPPRLPRPRPRPQNFPRP, the “shrunken log2 fold change” value was determined as 0.00814. Regarding RRIRRRPPRLPRPRPRPYEYPRP, the “shrunken log2 fold change” value was -0.206. The value for RRIRWRPPRLPRPRPRPLMMPRP was 0.0198; that for RRIRFRPPRLPRPRPRPMDPPRP was 0.0482. In the case of RRIRCRPPRLPRPRPRPDNWPRP, the “shrunken log2 fold change” value amounted to 0.409. In the case of RRIRARPPRLPRPRPRPLHQPRP, the “shrunken log2 fold change” value worked out at 0.147.

(Values after the supplement of paper PMC9112550, “Optimization of the antimicrobial peptide Bac7 by deep mutational scanning” (BMC Biology, 2022).)
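Further: peptides expressed intracellularly from a pBAD plasmid library in pooled LB shake-flask culture, induced with 0.3% L-arabinose, DNA abundance read by NGS, three biological replicates, DESeq2 with apeglm shrinkage.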
